Data as given in publication PMC13185157.

Biological target: GFP-LNX1
Experiment: flow cytometry on cells; α-GFP-Nb yeast incubated with lysates of HEK293 cells expressing FLAG-tagged partner plus GFP-LNX1 or GFP; washed once; anti-FLAG antibody; percent of positive cells

FLAG-ZNF24, sequence (P17028 whole entry): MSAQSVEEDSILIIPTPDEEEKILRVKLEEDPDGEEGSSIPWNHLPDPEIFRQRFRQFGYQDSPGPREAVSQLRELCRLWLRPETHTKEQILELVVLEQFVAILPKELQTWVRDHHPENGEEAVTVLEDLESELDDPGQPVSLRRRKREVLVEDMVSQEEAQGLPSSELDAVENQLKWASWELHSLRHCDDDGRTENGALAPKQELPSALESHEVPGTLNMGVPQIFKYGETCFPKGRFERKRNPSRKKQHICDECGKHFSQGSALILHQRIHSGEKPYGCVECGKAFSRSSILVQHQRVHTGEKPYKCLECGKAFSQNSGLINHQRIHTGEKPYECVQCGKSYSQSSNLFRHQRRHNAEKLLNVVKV
FLAG-Liprin-α1, sequence (Q13136 whole entry): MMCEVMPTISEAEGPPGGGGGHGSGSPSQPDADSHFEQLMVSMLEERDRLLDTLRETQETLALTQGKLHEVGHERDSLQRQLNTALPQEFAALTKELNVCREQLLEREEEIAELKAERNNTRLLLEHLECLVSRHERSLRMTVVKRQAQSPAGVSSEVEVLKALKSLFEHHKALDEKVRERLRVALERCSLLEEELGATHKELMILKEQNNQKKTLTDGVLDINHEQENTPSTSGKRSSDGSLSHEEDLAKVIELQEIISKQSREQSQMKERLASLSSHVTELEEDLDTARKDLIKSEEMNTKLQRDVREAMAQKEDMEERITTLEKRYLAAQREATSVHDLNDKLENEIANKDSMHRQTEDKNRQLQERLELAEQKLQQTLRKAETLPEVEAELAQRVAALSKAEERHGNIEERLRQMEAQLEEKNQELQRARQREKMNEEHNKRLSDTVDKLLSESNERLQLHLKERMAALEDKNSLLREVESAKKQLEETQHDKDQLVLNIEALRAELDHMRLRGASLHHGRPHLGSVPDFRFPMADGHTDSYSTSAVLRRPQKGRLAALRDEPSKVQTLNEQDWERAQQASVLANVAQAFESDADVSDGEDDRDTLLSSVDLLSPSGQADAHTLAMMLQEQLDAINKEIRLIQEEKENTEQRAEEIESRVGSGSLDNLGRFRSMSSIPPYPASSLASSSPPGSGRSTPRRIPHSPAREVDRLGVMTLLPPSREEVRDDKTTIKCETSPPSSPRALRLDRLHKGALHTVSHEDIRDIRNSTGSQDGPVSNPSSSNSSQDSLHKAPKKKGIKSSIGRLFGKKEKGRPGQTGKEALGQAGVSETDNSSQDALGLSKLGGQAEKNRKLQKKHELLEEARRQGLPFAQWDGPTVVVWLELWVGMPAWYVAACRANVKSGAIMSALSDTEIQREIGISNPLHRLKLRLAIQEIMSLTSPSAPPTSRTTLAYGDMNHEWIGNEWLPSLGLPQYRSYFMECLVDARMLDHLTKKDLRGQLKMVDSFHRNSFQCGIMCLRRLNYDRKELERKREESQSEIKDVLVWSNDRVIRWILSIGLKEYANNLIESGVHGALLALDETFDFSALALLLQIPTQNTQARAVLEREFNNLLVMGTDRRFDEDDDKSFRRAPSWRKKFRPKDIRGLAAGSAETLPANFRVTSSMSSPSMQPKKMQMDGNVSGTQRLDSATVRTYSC
FLAG-NUMB, sequence (Q9QZS3 whole entry): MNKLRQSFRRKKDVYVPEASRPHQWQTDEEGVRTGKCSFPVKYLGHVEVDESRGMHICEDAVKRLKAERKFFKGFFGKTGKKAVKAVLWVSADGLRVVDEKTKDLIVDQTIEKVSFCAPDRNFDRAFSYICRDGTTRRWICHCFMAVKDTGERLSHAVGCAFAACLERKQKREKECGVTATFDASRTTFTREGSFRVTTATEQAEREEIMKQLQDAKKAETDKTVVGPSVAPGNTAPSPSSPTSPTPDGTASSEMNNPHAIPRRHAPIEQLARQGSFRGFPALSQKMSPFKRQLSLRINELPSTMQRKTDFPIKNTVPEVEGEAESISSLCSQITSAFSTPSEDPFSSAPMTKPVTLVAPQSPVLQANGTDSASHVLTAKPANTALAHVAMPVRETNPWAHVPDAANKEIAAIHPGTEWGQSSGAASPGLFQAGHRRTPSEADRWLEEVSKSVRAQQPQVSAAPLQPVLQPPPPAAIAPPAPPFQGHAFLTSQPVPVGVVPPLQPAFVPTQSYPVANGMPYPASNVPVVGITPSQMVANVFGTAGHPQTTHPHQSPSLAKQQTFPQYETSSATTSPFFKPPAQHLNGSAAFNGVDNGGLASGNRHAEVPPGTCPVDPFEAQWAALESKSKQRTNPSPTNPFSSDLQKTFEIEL

percent of FLAG positive cells [%] | percent of cells positively labelled with anti-FLAG antibody [%] | Substance
77 |  | FLAG-ZNF24 (from UniProt P17028 1-368) (natural protein)
 | 30 | FLAG-Liprin-α1 (from UniProt Q13136 1-1202) (natural protein)
 | 10 | FLAG-NUMB (from UniProt Q9QZS3 1-653) (natural protein)
